B1: Bbcmr1 promoter probe (cmr1-EMSA) (dsDNA)
DNA 1: CGGAATTACGATATTACCCCTAGAGACAATTTTTATTATA
DNA 2: TATAATAAAAATTGTCTCTAGGGGTAATATCGTAATTCCG
B2: BbbrlA promoter probe (brlA-EMSA) (dsDNA)
DNA 1: GGAAAAAAAAAAAAGAAAAGGAACCCACAACTCAAGTCT
DNA 2: AGACTTGAGTTGTGGGTTCCTTTTCTTTTTTTTTTTTCC

What was measured:
[1] = target: T1, BbBrlA (Beauveria bassiana, UniProt J5JC27 1-370); test: EMSA; shift lost with 200-fold unlabeled probe; LightShift Chemiluminescent EMSA kit, manufacturer's instructions; buffer, salt, pH and temperature not given; conditions: protein: recombinant; tags: GST; label: biotin; blunt
T1 sequence: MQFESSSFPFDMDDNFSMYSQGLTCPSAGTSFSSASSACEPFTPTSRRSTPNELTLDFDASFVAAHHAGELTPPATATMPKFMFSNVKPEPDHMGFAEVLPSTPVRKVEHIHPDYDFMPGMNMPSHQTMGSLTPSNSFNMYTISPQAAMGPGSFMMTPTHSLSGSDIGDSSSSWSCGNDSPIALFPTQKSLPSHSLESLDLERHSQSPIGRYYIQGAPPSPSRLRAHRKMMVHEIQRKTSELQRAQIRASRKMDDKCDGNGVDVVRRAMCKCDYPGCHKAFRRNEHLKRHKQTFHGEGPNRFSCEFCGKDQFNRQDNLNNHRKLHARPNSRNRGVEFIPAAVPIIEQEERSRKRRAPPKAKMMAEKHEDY

[2] = target: T2, BbCmr1 (Beauveria bassiana, UniProt J4VZG7 1-764); test: EMSA; 0.5-2 ug protein, 10 ng probe; concentration-dependent; complex decreased by 200-800-fold unlabeled probe; LightShift Chemiluminescent EMSA kit, manufacturer's instructions; buffer, salt, pH and temperature not given; conditions: protein: recombinant; tags: N-terminal GST (pGEX-6p); chain copies: 2; label: biotin; blunt
T2 sequence: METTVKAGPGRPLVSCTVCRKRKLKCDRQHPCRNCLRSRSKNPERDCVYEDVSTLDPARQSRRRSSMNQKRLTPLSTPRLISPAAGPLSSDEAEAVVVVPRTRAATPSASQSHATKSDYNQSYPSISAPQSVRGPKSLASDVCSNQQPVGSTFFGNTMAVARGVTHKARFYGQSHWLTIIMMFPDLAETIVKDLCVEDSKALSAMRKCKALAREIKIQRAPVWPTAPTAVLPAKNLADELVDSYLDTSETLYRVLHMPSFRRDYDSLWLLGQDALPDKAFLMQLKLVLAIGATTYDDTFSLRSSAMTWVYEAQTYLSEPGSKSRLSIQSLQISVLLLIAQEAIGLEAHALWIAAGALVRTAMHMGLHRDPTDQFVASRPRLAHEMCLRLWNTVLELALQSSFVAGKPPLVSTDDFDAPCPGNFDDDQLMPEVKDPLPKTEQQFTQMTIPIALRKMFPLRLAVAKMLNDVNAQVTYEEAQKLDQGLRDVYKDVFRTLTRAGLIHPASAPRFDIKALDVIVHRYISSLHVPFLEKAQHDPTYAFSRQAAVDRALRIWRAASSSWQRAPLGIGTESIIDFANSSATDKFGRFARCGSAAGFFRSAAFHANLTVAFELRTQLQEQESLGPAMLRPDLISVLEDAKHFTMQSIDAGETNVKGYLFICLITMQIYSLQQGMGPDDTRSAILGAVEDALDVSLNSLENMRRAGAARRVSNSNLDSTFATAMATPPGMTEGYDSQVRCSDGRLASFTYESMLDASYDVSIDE

| Binder | binding result [1] | binding result [2] |
| --- | --- | --- |
| B1 | binds | – |
| B2 | – | binds |
